Source: US20190040155A1 (AFFIMED, published 2019)

Key:
CD19 [1] = target: T1, CD19 (UniProt P15391 20-556, limits assumed); assay: flow cytometry on Raji cells
T1 construct: whole, on cells; Raji is a human cell line; also called CD19 on CD19+/CD30- Raji cells
T1 sequence (looked up): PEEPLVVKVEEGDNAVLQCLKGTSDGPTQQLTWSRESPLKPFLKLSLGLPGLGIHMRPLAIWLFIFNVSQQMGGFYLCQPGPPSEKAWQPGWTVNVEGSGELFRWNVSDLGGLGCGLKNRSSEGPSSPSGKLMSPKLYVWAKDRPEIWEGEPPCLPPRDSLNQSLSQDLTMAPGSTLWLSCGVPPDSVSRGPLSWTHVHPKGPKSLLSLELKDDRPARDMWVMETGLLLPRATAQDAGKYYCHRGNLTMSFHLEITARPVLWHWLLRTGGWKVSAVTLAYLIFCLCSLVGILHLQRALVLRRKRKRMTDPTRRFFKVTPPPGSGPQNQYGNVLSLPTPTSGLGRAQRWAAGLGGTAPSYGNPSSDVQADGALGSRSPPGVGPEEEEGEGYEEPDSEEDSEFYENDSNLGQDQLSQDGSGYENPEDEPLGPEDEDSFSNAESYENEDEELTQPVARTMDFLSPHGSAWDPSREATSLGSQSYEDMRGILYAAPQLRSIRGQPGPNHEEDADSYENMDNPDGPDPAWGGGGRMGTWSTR
Protocol: (§1) Single-positive CD19+/CD30− Raji and CD19-/CD30+ KARPAS-299 cells as well as double-positive CD19+/CD30+ MEC-1 were stained with serial dilutions of the trispecific antibody molecules and cell surface bound antibodies were detected by mAb anti-His followed by FITC-conjugated goat anti-mouse IgG. Mean fluorescence intensities determined by flow cytometry were used to calculate KD values by non-linear regression. KD values for trispecific antibody molecules were determined in two independent experiments. […]
(§2) After repeated washing with FACS buffer, cell-bound antibodies were detected with 10 μg/mL anti-His mAb 13/45/31-2 (Dianova, Hamburg, Germany, cat.: DIA910-1MG) followed by 15 μg/mL FITC-conjugated goat anti-mouse antibody (Dianova, cat.: 115-095-062). […] The fluorescence of 2-5×10³ living cells was measured using a Beckman-Coulter FC500 MPL flow cytometer using the MXP software (Beckman-Coulter, Krefeld, Germany) or a Millipore Guava EasyCyte flow cytometer (Merck Millipore, Schwalbach, Germany). Mean fluorescence intensities of the cell samples were calculated using CXP software (Beckman-Coulter) or Incyte software (Merck Millipore, Schwalbach, Germany). […]

CD16A (FcγRIIIA) = target: T2, CD16A (FcγRIIIA) (human, UniProt P08637 17-254); assay: flow cytometry on primary NK cells
T2 construct: whole, on cells; also called CD16A on primary NK cells
Protocol: Aliquots of the indicated cell lines were incubated with […] of serial dilutions of His-tagged antibodies in FACS buffer (PBS, Invitrogen, cat.: 14190-169) containing 2% heat-inactivated FCS (Invitrogen, cat.: 10270-106), 0.1% sodium azide (Roth, Karlsruhe, Germany, cat.: A1430.0100) for 45 min on ice. Staining of NK-cells was performed in FACS buffer supplemented with 1 mg/mL polyclonal human antibody (Gammanorm, Octapharma, Langenfeld, Germany, cat.: PZN-2451445) to block binding of antibodies to Fc[…] receptors.
After repeated washing with FACS buffer, cell-bound antibodies were detected with 10 μg/mL anti-His mAb 13/45/31-2 (Dianova, Hamburg, Germany, cat.: DIA910-1MG) followed by 15 μg/mL FITC-conjugated goat anti-mouse antibody (Dianova, cat.: 115-095-062). The cells were then washed again and resuspended in 0.2 mL of FACS buffer containing 2 μg/mL propidium iodide (PI) (Sigma, cat.: P4170) in order to exclude dead cells. The fluorescence of 2-5×10³ living cells was measured using a Beckman-Coulter FC500 MPL flow cytometer using the MXP software (Beckman-Coulter, Krefeld, Germany) or a Millipore Guava EasyCyte flow cytometer (Merck Millipore, Schwalbach, Germany). Mean fluorescence intensities of the cell samples were calculated using CXP software (Beckman-Coulter) or Incyte software (Merck Millipore, Schwalbach, Germany). After subtracting the fluorescence intensity values of the cells stained with the secondary and tertiary reagents alone, the values were used for analysis using the GraphPad Prism (GraphPad Prism version 6.00 for Windows, GraphPad Software, La Jolla Calif. USA). For the calculation of KD, the equation for one-site-binding (hyperbolic) was used.

CD30 [2] = target: T3, CD30 (UniProt P28908 19-595, limits assumed); assay: flow cytometry on Karpas-299 cells
T3 construct: whole, on cells; also called CD30 on CD19-/CD30+ KARPAS-299 cells
T3 sequence (looked up): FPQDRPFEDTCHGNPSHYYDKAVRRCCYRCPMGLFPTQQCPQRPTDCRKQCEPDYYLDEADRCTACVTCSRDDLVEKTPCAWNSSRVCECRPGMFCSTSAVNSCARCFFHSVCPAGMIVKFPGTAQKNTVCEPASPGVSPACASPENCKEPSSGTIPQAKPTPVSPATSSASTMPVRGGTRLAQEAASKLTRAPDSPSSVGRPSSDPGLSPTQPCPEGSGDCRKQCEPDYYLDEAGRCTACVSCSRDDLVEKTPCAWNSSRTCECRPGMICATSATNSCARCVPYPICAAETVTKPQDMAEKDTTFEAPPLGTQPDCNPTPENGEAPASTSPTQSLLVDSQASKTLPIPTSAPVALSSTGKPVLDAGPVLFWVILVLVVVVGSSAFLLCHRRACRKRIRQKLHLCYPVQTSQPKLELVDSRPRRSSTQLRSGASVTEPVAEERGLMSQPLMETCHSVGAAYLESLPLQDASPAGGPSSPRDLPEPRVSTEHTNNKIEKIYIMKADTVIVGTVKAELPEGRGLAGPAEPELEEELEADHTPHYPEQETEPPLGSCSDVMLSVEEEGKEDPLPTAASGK
Protocol: as §1, §2

CD19 [3] = target: T1, CD19; assay: flow cytometry on Raji cells, anti-His detection
Protocol: as §1, §2

CD30 [4] = target: T3, CD30; assay: flow cytometry on KARPAS-299 cells, anti-His detection
Protocol: as §1, §2

Measured: binding result

T2 sequence (P08637 17-254): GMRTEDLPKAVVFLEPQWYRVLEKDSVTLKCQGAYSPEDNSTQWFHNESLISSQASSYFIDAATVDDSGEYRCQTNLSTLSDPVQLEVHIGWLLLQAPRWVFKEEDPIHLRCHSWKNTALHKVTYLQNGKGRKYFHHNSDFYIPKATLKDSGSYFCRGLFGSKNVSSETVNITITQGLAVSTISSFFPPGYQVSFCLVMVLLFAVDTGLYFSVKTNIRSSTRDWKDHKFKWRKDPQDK

B1: aTriFlex_104 (other)
chain 1: QVQLQQSGAELARPGASVKMSCKASGYTFTTYTIHWVRQRPGHDLEWIGYINPSSGYSDYNQNFKGKTTLTADKSSNTAYMQLNSLTSEDSAVYYCARRADYGNYEYTWFAYWGQGTTVTVSSGGSGGSGGSGGSGGSGGSDIVMTQSPKFMSTSVGDRVTVTCKASQNVGTNVAWFQQKPGQSPKVLIYSASYRYSGVPDRFTGSGSGTDFTLTISNVQSEDLAEYFCQQYHTYPLTFGGGTKLEINGGSGGSGGSSYVLTQPSSVSVAPGQTATISCGGHNIGSKNVHWYQQRPGQSPVLVIYQDNKRPSGIPERFSGSNSGNTATLTISGTQAMDEADYYCQVWDNYSVLFGGGTKLTVLGGSGGSGGSSYVLTQPSSVSVAPGQTATISCGGHNIGSKNVHWYQQRPGQSPVLVIYQDNKRPSGIPERFSGSNSGNTATLTISGTQAMDEADYYCQVWDNYSVLFGGGTKLTVLGGSGGSGGSSYVLTQPPSVSVAPGQTARITCGGNNIGSKTVHWYQQKPGQAPVLVVYDDSDRPSGIPERFSGSNSGNTATLTISRVEAGDEADYYCQVGTDWSDHLQVFGGGTKLTVLGGSGGSGGSGGSGGSGGSGGSEVQLVQSGAEVKKPGESLKISCKGSGYSFTSNWIGWVRQMPGKGLEWMGMIWPGDSDTMYSPSFQGQVTISADESINTAYLQWSSLKASDTAMYYCARRETTTVGRYYYAMDYWGQGTLVTVSSAAAGSDYKDDDDK
chain 2: QVQLVQSGAEVKKPGESLKVSCKASGYTFTSYYMHWVRQAPGQGLEWMGIINPSGGSTSYAQKFQGRVTMTRDTSTSTVYMELSSLRSEDTAVYYCARGSAYYYDFADYWGQGTLVTVSSGGSGGSGGSQVQLVQSGAEVKKPGESLKVSCKASGYTFTSYYMHWVRQAPGQGLEWMGIINPSGGSTSYAQKFQGRVTMTRDTSTSTVYMELSSLRSEDTAVYYCARGSAYYYDFADYWGQGTLVTVSSAAAGSHHHHHH
notes: Tetravalent, trispecific (CD30, CD19, CD16A) Fv antibody without constant domains; heterodimer of two polypeptides; also called antibody molecule d); construct d)
binds: CD19 [1] | CD16A (FcγRIIIA) | CD30 [2]

B2: aTriFlex_101 (other)
chain 1: QVQLQQSGAELARPGASVKMSCKASGYTFTTYTIHWVRQRPGHDLEWIGYINPSSGYSDYNQNFKGKTTLTADKSSNTAYMQLNSLTSEDSAVYYCARRADYGNYEYTWFAYWGQGTTVTVSSGGSGGSGGSGGSGGSGGSDIVMTQSPKFMSTSVGDRVTVTCKASQNVGTNVAWFQQKPGQSPKVLIYSASYRYSGVPDRFTGSGSGTDFTLTISNVQSEDLAEYFCQQYHTYPLTFGGGTKLEINGGSGGSGGSQVQLVQSGAEVKKPGESLKVSCKASGYTFTSYYMHWVRQAPGQGLEWMGIINPSGGSTSYAQKFQGRVTMTRDTSTSTVYMELSSLRSEDTAVYYCARGSAYYYDFADYWGQGTLVTVSSGGSGGSGGSQVQLVQSGAEVKKPGESLKVSCKASGYTFTSYYMHWVRQAPGQGLEWMGIINPSGGSTSYAQKFQGRVTMTRDTSTSTVYMELSSLRSEDTAVYYCARGSAYYYDFADYWGQGTLVTVSSGGSGGSGGSSYVLTQPPSVSVAPGQTARITCGGNNIGSKTVHWYQQKPGQAPVLVVYDDSDRPSGIPERFSGSNSGNTATLTISRVEAGDEADYYCQVGTDWSDHLQVFGGGTKLTVLGGSGGSGGSGGSGGSGGSGGSEVQLVQSGAEVKKPGESLKISCKGSGYSFTSNWIGWVRQMPGKGLEWMGMIWPGDSDTMYSPSFQGQVTISADESINTAYLQWSSLKASDTAMYYCARRETTTVGRYYYAMDYWGQGTLVTVSSAAAGSHHHHHH
chain 2: SYVLTQPSSVSVAPGQTATISCGGHNIGSKNVHWYQQRPGQSPVLVIYQDNKRPSGIPERFSGSNSGNTATLTISGTQAMDEADYYCQVWDNYSVLFGGGTKLTVLGGSGGSGGSSYVLTQPSSVSVAPGQTATISCGGHNIGSKNVHWYQQRPGQSPVLVIYQDNKRPSGIPERFSGSNSGNTATLTISGTQAMDEADYYCQVWDNYSVLFGGGTKLTVLAAAGSDYKDDDDK
notes: Tetravalent, trispecific (CD30, CD19, CD16A) Fv antibody without constant domains; heterodimer of two non-covalently associated polypeptides; also called antibody molecule a); construct a)
binds: CD16A (FcγRIIIA) | CD19 [3] | CD30 [4]

B3: aTriFlex_102 (other)
chain 1: SYVLTQPPSVSVAPGQTARITCGGNNIGSKTVHWYQQKPGQAPVLVVYDDSDRPSGIPERFSGSNSGNTATLTISRVEAGDEADYYCQVGTDWSDHLQVFGGGTKLTVLGGSGGSGGSGGSGGSGGSGGSEVQLVQSGAEVKKPGESLKISCKGSGYSFTSNWIGWVRQMPGKGLEWMGMIWPGDSDTMYSPSFQGQVTISADESINTAYLQWSSLKASDTAMYYCARRETTTVGRYYYAMDYWGQGTLVTVSSGGSGGSGGSQVQLVQSGAEVKKPGESLKVSCKASGYTFTSYYMHWVRQAPGQGLEWMGIINPSGGSTSYAQKFQGRVTMTRDTSTSTVYMELSSLRSEDTAVYYCARGSAYYYDFADYWGQGTLVTVSSGGSGGSGGSQVQLVQSGAEVKKPGESLKVSCKASGYTFTSYYMHWVRQAPGQGLEWMGIINPSGGSTSYAQKFQGRVTMTRDTSTSTVYMELSSLRSEDTAVYYCARGSAYYYDFADYWGQGTLVTVSSGGSGGSGGSQVQLQQSGAELARPGASVKMSCKASGYTFTTYTIHWVRQRPGHDLEWIGYINPSSGYSDYNQNFKGKTTLTADKSSNTAYMQLNSLTSEDSAVYYCARRADYGNYEYTWFAYWGQGTTVTVSSGGSGGSGGSGGSGGSGGSDIVMTQSPKFMSTSVGDRVTVTCKASQNVGTNVAWFQQKPGQSPKVLIYSASYRYSGVPDRFTGSGSGTDFTLTISNVQSEDLAEYFCQQYHTYPLTFGGGTKLEINAAAGSHHHHHH
chain 2: SYVLTQPSSVSVAPGQTATISCGGHNIGSKNVHWYQQRPGQSPVLVIYQDNKRPSGIPERFSGSNSGNTATLTISGTQAMDEADYYCQVWDNYSVLFGGGTKLTVLGGSGGSGGSSYVLTQPSSVSVAPGQTATISCGGHNIGSKNVHWYQQRPGQSPVLVIYQDNKRPSGIPERFSGSNSGNTATLTISGTQAMDEADYYCQVWDNYSVLFGGGTKLTVLAAAGSDYKDDDDK
notes: Tetravalent, trispecific (CD30, CD19, CD16A) Fv antibody without constant domains; heterodimer of two polypeptides; also called antibody molecule b); construct b)
binds: CD16A (FcγRIIIA) | CD19 [3] | CD30 [4]
